Data as given in US20130330343A1 (AbbVie / Abbott, published 2013).

T1: hRGMc expressed in 293HEK cells (human, UniProt Q6ZVN8 36-400)
T1 sequence: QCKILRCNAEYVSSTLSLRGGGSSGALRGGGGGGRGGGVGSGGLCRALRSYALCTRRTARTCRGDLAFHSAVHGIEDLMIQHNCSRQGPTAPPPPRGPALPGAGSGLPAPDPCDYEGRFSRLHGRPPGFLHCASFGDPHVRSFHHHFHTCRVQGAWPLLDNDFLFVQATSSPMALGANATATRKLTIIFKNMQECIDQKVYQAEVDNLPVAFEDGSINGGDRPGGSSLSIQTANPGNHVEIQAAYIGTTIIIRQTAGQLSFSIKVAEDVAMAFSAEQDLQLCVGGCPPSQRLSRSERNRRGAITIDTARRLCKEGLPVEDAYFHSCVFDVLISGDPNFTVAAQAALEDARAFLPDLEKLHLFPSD

T2: Rat RGMa-His (rat) (UniProt D4A188)
T2 sequence: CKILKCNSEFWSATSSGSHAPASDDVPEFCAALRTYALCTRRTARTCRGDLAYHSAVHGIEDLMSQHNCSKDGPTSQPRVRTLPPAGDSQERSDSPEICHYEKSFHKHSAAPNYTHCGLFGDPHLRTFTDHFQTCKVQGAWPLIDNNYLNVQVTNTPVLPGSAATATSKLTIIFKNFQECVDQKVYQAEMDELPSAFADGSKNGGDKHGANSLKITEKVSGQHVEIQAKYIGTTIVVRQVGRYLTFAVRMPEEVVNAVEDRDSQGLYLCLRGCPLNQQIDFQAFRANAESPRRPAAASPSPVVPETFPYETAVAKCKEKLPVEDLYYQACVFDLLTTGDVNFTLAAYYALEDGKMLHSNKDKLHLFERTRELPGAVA

T3: hRGMa-His (human, UniProt Q96B86 48-422, limits assumed)
T3 construct: not shown: His tag
T3 sequence (looked up): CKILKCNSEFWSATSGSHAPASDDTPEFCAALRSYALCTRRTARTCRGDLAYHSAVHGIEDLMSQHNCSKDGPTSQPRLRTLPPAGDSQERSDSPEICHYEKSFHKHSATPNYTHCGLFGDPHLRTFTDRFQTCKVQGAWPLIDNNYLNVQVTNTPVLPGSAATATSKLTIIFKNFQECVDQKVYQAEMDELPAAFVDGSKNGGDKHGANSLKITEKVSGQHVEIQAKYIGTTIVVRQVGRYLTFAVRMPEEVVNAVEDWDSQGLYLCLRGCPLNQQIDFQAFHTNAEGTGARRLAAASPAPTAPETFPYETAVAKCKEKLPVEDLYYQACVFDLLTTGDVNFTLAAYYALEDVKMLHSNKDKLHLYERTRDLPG

T4: R&D hRGMc-His (human, UniProt Q6ZVN8 36-400)
T4 construct: Bought (R&D); not shown: His tag
T4 sequence: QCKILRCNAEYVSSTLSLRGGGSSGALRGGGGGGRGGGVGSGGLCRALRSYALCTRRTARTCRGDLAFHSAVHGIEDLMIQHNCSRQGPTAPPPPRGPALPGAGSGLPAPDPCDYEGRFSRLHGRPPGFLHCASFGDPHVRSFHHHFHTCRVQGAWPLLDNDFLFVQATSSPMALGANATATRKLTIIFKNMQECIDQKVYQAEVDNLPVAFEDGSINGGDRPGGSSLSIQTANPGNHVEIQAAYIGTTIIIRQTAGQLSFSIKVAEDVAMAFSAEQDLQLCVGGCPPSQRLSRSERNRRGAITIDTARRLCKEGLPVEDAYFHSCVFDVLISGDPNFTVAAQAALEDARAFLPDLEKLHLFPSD

T5: Rat RGMa (rat) (UniProt D4A188)
T5 sequence: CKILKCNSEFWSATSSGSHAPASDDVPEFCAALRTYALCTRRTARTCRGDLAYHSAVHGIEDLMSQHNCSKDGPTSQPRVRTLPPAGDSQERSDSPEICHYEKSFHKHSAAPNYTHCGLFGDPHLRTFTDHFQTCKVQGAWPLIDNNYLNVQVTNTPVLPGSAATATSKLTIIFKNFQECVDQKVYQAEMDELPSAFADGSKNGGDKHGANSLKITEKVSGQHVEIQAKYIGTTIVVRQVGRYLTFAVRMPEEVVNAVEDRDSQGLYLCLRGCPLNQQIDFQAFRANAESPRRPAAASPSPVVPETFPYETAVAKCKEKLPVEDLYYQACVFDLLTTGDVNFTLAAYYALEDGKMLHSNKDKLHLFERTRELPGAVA

T6: human RGMa (human, UniProt Q96B86 48-422, limits assumed)
T6 construct: also called hRGMa; h RGMa
T6 sequence (looked up): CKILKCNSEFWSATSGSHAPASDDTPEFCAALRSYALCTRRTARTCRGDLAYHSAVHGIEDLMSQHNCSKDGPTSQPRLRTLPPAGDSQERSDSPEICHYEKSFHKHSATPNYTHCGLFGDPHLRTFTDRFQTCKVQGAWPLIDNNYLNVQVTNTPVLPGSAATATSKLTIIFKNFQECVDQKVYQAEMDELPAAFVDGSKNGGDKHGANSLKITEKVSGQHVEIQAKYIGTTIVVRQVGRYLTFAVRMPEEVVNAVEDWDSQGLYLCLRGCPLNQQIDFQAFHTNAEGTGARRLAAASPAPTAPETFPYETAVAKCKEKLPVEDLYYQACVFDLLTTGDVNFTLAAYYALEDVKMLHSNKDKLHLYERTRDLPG

T7: human RGMc (human, UniProt Q6ZVN8 36-400, limits assumed)
T7 construct: also called hRGMc
T7 sequence: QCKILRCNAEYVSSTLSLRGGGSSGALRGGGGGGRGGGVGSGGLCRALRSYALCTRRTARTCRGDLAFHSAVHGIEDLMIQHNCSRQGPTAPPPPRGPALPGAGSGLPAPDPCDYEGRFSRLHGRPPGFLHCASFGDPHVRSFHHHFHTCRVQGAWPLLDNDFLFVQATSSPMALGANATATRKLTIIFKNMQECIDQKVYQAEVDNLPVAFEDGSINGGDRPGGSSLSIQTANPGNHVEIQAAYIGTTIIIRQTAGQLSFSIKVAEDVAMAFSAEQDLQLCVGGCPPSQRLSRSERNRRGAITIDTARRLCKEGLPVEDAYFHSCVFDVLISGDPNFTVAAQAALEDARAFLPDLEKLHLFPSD


Key:
[1] = target: T1, hRGMc expressed in 293HEK cells; assay: cell-based or functional assay
Rat RGMa-His (rat) = target: T2, Rat RGMa-His (rat); assay: Affinity KD (nM); (BIAcore per Example 4)
hRGMa-His = target: T3, hRGMa-His; assay: Affinity KD (nM); (BIAcore per Example 4)
Method: (§1) The potency data correlates with the affinity data (see Table 5). The affinity of h5F9.23 affinity matured Abs towards human RGMa, rat RGMa, and human RGMc were determined by BIAcore analysis (Table 5). Testing Abs were captured to the surface of a CM5 chip via anti-hIgG Fc Ab, and serially diluted antigens were injected. Association and dissociation rates were monitored for 5 and 10 min respectively. Sensorgrams were fitted by global analysis using the BIAevaluation 4.0.1 software for a 1:1 Langmuir binding model. The equilibrium dissociation constants (KD) were calculated from kinetic rate constants (off rate kd and on rate ka): KD=kd/ka.

R&D hRGMc-His = target: T4, R&D hRGMc-His; assay: Affinity KD (nM); (BIAcore per Example 4)
Method: as §1

Rat RGMa (rat) = target: T5, Rat RGMa (rat); assay: BIAcore; Ab captured via anti-hIgG Fc on CM5 chip, antigen injected; 1:1 Langmuir fit
human RGMa = target: T6, human RGMa; assay: as above
Method: as §1

human RGMc = target: T7, human RGMc; assay: as above
Method: as §1

[2] = target: T1, hRGMc expressed in 293HEK cells; assay: cell-based or functional assay; remark: listed apart in the source

Row | Binder | IC50 (inhibition of RGMc-mediated BRE-luciferase activity, RLU, in 293HEK cells transfected with hRGMc) [1] | Kd (Rat RGMa-His (rat)) | Kd (hRGMa-His) | Kd (R&D hRGMc-His) | Kd (Rat RGMa (rat)) | koff (Rat RGMa (rat)) | kon (Rat RGMa (rat)) | Kd (human RGMa) | koff (human RGMa) | kon (human RGMa) | Kd (human RGMc) | koff (human RGMc) | kon (human RGMc) | IC50, RGMc-mediated BMP reporter (BRE-luc) assay in 293HEK cells [2]
1 | RGMA-h5F9Vh7a/pJP291 hIgG1/K mut (antibody, V domains shown, Tested as IgG; also called h5F9.AM4; H5F9AM.4) VH: EVQLVESGGGLVQPGGSLRLSCAASGFTFSNYGMNWIRQAPGKGLEWIGMIYYDSSEKHYADSVKGRFTISRDNSKNTLYLQMNSLRAEDTAVYYCAKGTTPDYWGQGTMVTVSS VL: DVVLTQSPLSLPVTLGQPASISCRSSQSLESSDGDTFLEWFQQRPGQSPRLLIYDVSTRFSGVPDRFSGSGSGTDFTLKISRVEAEDVGVYYCFQVTHDPVTFGQGTKLEIK | 0.31 nM | < 0.00094 nM | 0.015 nM | 0.12 nM | < 0.00094 nM | < 1e-06 s⁻¹ | 1.1e+06 M⁻¹ s⁻¹ | 0.015 nM | 2.2e-05 s⁻¹ | 1.4e+06 M⁻¹ s⁻¹ | 0.13 nM | 0.00104 s⁻¹ | 7.85e+06 M⁻¹ s⁻¹ | –
2 | humanized antibody 5F9.23 (antibody, V domains shown, also called h5F9.23; H5F9.23) VH: EVQLVESGGGLVQPGGSLRLSCAASGFTFSNYGMNWIRQAPGKGLEWIGMIYYDSSEKHYADSVKGRFTISRDNSKNTLYLQMNSLRAEDTAVYYCAKGTTPDYWGQGTMVTVSS VL: DVVLTQSPLSLPVTLGQPASISCRSSQSLEYSDGYTFLEWFQQRPGQSPRLLIYEVSNRFSGVPDRFSGSGSGTDFTLKISRVEAEDVGVYYCFQATHDPLTFGQGTKLEIKR | 17.1 nM | – | – | – | 2.1 nM | 0.0017 s⁻¹ | 830000 M⁻¹ s⁻¹ | 3.7 nM | 0.0022 s⁻¹ | 600000 M⁻¹ s⁻¹ | 29 nM | – | 830000 M⁻¹ s⁻¹ | 17 nM
3 | RGMA-h5F9pJP297/pJP298 hIgG1/K mut (antibody, V domains shown, Tested as IgG; also called h5F9.AM8; H5F9AM.8) VH: EVQLVESGGGLVQPGGSLRLSCAASGFTFSNYGMNWIRQAPGKGLEWIGMIYYDSSEKHYADSVKGRFTISRDNSKNTLYLQMNSLRAEDTAVYYCAKGTTPDYWGQGTMVTVSS VL: DVVLTQSPLSLPVTLGQPASISCRSSQSLEESDGYTFLHWFQQRPGQSPRLLIYEVSTRFSGVPDRFSGSGSGTDFTLKISRVEAEDVGVYYCFQATHDPLTFGQGTKLEIK | 0.38 nM | < 0.0015 nM | 0.031 nM | 0.08 nM | < 0.0015 nM | < 1e-06 s⁻¹ | 660000 M⁻¹ s⁻¹ | 0.031 nM | 2.7e-05 s⁻¹ | 870000 M⁻¹ s⁻¹ | 0.105 nM | 0.00039 s⁻¹ | 3.95e+06 M⁻¹ s⁻¹ | –
4 | RGMA-h5F9pJP297/pJP299 hIgG1/K mut (antibody, V domains shown, Tested as IgG; also called h5F9.AM9; H5F9AM.9) VH: EVQLVESGGGVVQPGRSLRLSCAASGFTFSNYGMNWVRQAPGKGLEWVAMIYYDSSEKHYADSVKGRFTISRDNSKNTLYLQMNSLRAEDTAVYYCARGTTPDYWGQGTMVTVSS VL: DVVLTQSPLSLPVTLGQPASISCRSSQSLADSDGDTFLHWFQQRPGQSPRLLIYAVSHRFSGVPDRFSGSGSGTDFTLKISRVEAEDVGVYYCFQATHDPVTFGQGTKLEIK | 1.36 nM | 0.31 nM | 0.47 nM | 0.69 nM | 0.31 nM | 0.00021 s⁻¹ | 680000 M⁻¹ s⁻¹ | 0.47 nM | 0.0004 s⁻¹ | 860000 M⁻¹ s⁻¹ | 0.71 nM | 0.0107 s⁻¹ | 1.55e+07 M⁻¹ s⁻¹ | –
5 | RGMA-h5F9pJP302/pJP303 hIgG1/K mut (antibody, V domains shown, Tested as IgG; also called h5F9.AM11; H5F9AM.11) VH: EVQLVESGGGLVQPGGSLRLSCAASGFTFSNYGMNWVRQAPGKGLEWVSMIYYDSSEKHYADSVKGRFTISRDNSKNTLYLQMNSLRAEDTAVYYCAKGTTPDYWGQGTMVTVSS VL: DVVLTQSPLSLPVTLGQPASISCRSSQSLEDSDGGTFLEWFQQRPGQSPRLLIYDVSSRFSGVPDRFSGSGSGTDFTLKISRVEAEDVGVYYCFQATHDPLSFGQGTKLEIK | 0.51 nM | 0.074 nM | 0.11 nM | 0.25 nM | 0.074 nM | 5.2e-05 s⁻¹ | 700000 M⁻¹ s⁻¹ | 0.11 nM | 9.9e-05 s⁻¹ | 930000 M⁻¹ s⁻¹ | 0.285 nM | 0.0014 s⁻¹ | 5.05e+06 M⁻¹ s⁻¹ | –
